Experimental data from the supplement of paper PMC10065799, “High-throughput profiling of sequence recognition by tyrosine kinases and SH2 domains using bacterial peptide display” (eLife, 2023).
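Note: 11-residue human phosphosite peptides and single-mutation variants displayed on the E. coli surface, counted by deep sequencing, each peptide's frequency after selection divided by its frequency in the unselected input library; frequency after pTyr selection over input frequency; kinase dosed for 20-30% of maximal phosphorylation in three min.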

These sequences were tested against Hck (UniProt P08631) (assay: phosphorylation enrichment, bacterial display (enrichment ratio); higher = better substrate or ligand; peptides without Tyr show the background).
Chain of Hck (P08631 whole entry, looked up): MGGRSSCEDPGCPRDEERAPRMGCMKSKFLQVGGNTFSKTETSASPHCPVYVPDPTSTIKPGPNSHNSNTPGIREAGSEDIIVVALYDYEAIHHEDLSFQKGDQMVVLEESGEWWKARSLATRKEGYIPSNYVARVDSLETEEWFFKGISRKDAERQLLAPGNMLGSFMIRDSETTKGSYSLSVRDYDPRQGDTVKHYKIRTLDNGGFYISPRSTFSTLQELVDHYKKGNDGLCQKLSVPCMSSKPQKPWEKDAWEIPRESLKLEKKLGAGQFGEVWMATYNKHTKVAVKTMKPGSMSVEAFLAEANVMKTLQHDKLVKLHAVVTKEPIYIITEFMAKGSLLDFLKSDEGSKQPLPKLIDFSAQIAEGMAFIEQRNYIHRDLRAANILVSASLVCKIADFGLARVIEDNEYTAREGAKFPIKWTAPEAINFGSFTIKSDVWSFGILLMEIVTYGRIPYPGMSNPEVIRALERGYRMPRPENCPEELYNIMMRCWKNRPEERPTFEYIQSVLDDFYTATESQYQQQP
For DFSLKYATDIP [APC_Y1183_YF], the phosphorylation enrichment was 0.47. LYSNAYLSDLA [ALDH1A1_Y119_N121S] showed a phosphorylation enrichment of 3.5. Sequence IVAREYYSKAD [CAMK2B_Y107_E110K] has a phosphorylation enrichment of 0.507. For GIATGYLVLKE [DNMT3B_Y588], the phosphorylation enrichment was 0.511. With PLFRVYGLESL [INSR_Y94_L89P] the phosphorylation enrichment was 0.574. For KVPRHYDDPGK [FOXG1_Y246], the phosphorylation enrichment was 0.481. For EEEPVYEAEPE [HCLS1_Y360], the phosphorylation enrichment was 0.73. NSNSDYVDVLP [SH2D1B_Y127] gave a phosphorylation enrichment of 0.735. For DLAGRYFALKS [CKB_Y173_YF], the phosphorylation enrichment was 0.453. For GFQPEYGQPAG [SYP_Y278_D277E_YF], the phosphorylation enrichment was 0.4. SESSYYKSLNL [NGEF_Y289_A286S] showed a phosphorylation enrichment of 0.627. In the case of DYGSGYPNDPK [RNASEH2A_Y210], the phosphorylation enrichment is reported as 0.574. Work on KLQKFYRQNPD [EHHADH_Y683_YF] yielded a phosphorylation enrichment of 0.443. SNSAAYSGSVA [PDLIM5_Y382_T381A] was tested, and the phosphorylation enrichment was 0.354. Sequence RRIHNYRGHLW [VHL_Y112_S111N] has a phosphorylation enrichment of 0.509. PLQSEYSSIST [ITGB4_Y1760_T1764S] was tested, and the phosphorylation enrichment was 1.93. STEEQYRIRQV [EFHC1_Y115] showed a phosphorylation enrichment of 0.41. In the case of SAAAIYTVRHP [PMP22_Y117], the phosphorylation enrichment is reported as 7.82. GELQGYDIMEP [MSH2_Y863_S860L] was tested, and the phosphorylation enrichment was 0.508. Work on ADYPDYKYRPR [SOX11_Y116] yielded a phosphorylation enrichment of 0.505. With TVVGLYQKSSL [MYH7_Y609] the phosphorylation enrichment was 0.685. Sequence PGPQSYPTVTG [PAX5_Y299_I301T] has a phosphorylation enrichment of 0.582. In the case of AVISVYDLVAV [PSEN1_Y256], the phosphorylation enrichment is reported as 6.2. ESLSSYRESAK [APOC2_Y47_W48R] showed a phosphorylation enrichment of 0.305. Sequence GVRYIYTIDGS [DCX_Y105] has a phosphorylation enrichment of 0.783. ATARPYSPFII [LRP5_Y1528_R1529S_YF] gave a phosphorylation enrichment of 0.594. ISSLRYELLEE [TRPC6_Y896] showed a phosphorylation enrichment of 0.597. Work on EADRKYEEVAC [TPM3_Y163_R168C] yielded a phosphorylation enrichment of 0.681. LEAVSYSSRYA [RNLS_Y190] gave a phosphorylation enrichment of 0.437.

The sequences below were run against Jak2 (UniProt O60674) in the same assay as above.
Chain of Jak2 (O60674 whole entry, looked up): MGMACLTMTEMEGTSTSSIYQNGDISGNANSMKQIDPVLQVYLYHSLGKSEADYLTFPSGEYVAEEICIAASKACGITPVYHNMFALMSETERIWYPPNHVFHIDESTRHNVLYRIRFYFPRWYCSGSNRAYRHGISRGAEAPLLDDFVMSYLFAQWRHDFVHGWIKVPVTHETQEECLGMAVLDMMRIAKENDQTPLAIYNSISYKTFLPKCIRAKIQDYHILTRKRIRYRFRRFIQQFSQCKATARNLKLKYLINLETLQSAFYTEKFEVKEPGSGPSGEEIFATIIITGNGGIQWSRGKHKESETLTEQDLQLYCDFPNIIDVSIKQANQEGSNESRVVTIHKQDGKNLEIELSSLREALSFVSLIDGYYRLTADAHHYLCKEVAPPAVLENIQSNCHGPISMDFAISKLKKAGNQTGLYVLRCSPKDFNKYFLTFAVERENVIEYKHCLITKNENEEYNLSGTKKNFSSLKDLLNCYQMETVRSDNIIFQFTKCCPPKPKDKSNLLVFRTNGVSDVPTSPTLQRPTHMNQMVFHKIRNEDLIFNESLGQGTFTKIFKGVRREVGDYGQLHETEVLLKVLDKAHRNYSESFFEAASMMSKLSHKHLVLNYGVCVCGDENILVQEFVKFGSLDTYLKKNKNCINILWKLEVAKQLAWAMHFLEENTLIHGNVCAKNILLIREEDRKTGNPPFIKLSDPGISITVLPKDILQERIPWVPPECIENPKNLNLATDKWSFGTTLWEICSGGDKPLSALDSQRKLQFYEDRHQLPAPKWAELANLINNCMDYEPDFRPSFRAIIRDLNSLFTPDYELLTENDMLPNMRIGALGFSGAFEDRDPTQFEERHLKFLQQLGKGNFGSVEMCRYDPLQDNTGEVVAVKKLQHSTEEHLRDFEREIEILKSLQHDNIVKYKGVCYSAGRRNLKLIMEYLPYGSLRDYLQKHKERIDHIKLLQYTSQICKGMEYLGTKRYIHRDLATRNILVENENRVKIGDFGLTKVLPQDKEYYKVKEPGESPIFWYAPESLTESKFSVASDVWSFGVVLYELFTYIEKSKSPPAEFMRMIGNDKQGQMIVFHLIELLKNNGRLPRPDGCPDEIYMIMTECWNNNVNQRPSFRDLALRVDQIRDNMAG
With DFSLKYATDIP [APC_Y1183_YF] the phosphorylation enrichment was 0.897. LYSNAYLSDLA [ALDH1A1_Y119_N121S] showed a phosphorylation enrichment of 0.945. In the case of IVAREYYSKAD [CAMK2B_Y107_E110K], the phosphorylation enrichment is reported as 0.697. Work on GIATGYLVLKE [DNMT3B_Y588] yielded a phosphorylation enrichment of 0.836. PLFRVYGLESL [INSR_Y94_L89P] gave a phosphorylation enrichment of 1.43. With KVPRHYDDPGK [FOXG1_Y246] the phosphorylation enrichment was 1.25. EEEPVYEAEPE [HCLS1_Y360] showed a phosphorylation enrichment of 1.38. With NSNSDYVDVLP [SH2D1B_Y127] the phosphorylation enrichment was 1.11. DLAGRYFALKS [CKB_Y173_YF] showed a phosphorylation enrichment of 1.57. GFQPEYGQPAG [SYP_Y278_D277E_YF] showed a phosphorylation enrichment of 0.723. In the case of SESSYYKSLNL [NGEF_Y289_A286S], the phosphorylation enrichment is reported as 0.852. For DYGSGYPNDPK [RNASEH2A_Y210], the phosphorylation enrichment was 0.93. KLQKFYRQNPD [EHHADH_Y683_YF] was tested, and the phosphorylation enrichment was 0.393. SNSAAYSGSVA [PDLIM5_Y382_T381A] was tested, and the phosphorylation enrichment was 0.636. Work on RRIHNYRGHLW [VHL_Y112_S111N] yielded a phosphorylation enrichment of 0.501. With PLQSEYSSIST [ITGB4_Y1760_T1764S] the phosphorylation enrichment was 0.822. STEEQYRIRQV [EFHC1_Y115] showed a phosphorylation enrichment of 0.516. Work on SAAAIYTVRHP [PMP22_Y117] yielded a phosphorylation enrichment of 0.506. GELQGYDIMEP [MSH2_Y863_S860L] gave a phosphorylation enrichment of 1.13. ADYPDYKYRPR [SOX11_Y116] gave a phosphorylation enrichment of 0.601. Work on TVVGLYQKSSL [MYH7_Y609] yielded a phosphorylation enrichment of 0.849. PGPQSYPTVTG [PAX5_Y299_I301T] was tested, and the phosphorylation enrichment was 0.892. AVISVYDLVAV [PSEN1_Y256] gave a phosphorylation enrichment of 0.82. ESLSSYRESAK [APOC2_Y47_W48R] was tested, and the phosphorylation enrichment was 0.487. Work on GVRYIYTIDGS [DCX_Y105] yielded a phosphorylation enrichment of 0.937. For ATARPYSPFII [LRP5_Y1528_R1529S_YF], the phosphorylation enrichment was 0.508. ISSLRYELLEE [TRPC6_Y896] showed a phosphorylation enrichment of 0.832. With EADRKYEEVAC [TPM3_Y163_R168C] the phosphorylation enrichment was 1.04. LEAVSYSSRYA [RNLS_Y190] showed a phosphorylation enrichment of 0.685.
